Assay: soluble on expression in E. coli; label from the status in PepcDB or PDB records

Row | Sequence | soluble on expression in E. coli
1 | MTATWEKKEGNEGLLTVTVPAEKVNKALDQAFKKVVKQINVPGFRKGKVPRPIFEQRFGVEALYQDAIDILLPDAYGEAIDETDIKPVAQPEVSVTQIEKGKDFIFEATVTVEPEVKLGDYKGLEIEKQETELSDDELQEAIDHSLGHLAEMVVKEDGVVENGDTVNIDFSGSVDGEEFEGGQAEGYDLEIGSGSFIPGFEEQLEGMKVDEEKDVVVTFPEEYHAEELAGKEATFKTKVNEIKFKEVPELTDEIANELDAEANTVDEYKENLRKRLAEQKATDAENVEKEEAITKATDNTTIDIPEAMVNTELDRMVSEFAQRIQQQGLDLQTYFQISGQDETQLREQMKDDAEQRVKTNLTLTAIAEAEKIEATDEDIDKELEKMSKQFNISVEDIKNTLGNTDIIKNDVRIQKVIDLLRDNAKFVEGTKED | not soluble
2 | MPKSAKRRASQPTGAETLVVVESPAKARSIQKMLGPGYEVRASLGHVVDLPERSLGVDVERDFAPTYEVKKDKKPVVEELKRAAEGKRLLIATDPDREGEAIGWHVARLLGRDPKEPLRVEFHEITPRVVRQAVEAPRPIDQNLVDAQQARRVLDRLLGYNLSPLLSLEFRKRALSAGRVQSVALRLVVEREEAIEAFRPEEYWVLRGVFAVEGGEAPLVATLHEVEGKRLWTGQGEKEGRLHLASEAEAHALAEALRKGSYRVAQVEVRERRKAPPPPFTTSTLQQAASSRLGYTAARTMRIAQRLYEGVDLPEGTVGLITYMRTDSVRVAPEAVAAAREVIGKAFGPEYLPEAPRAYKNRREGVQDAHEAIRPTDPKRTPESVRPYLSEEEYRLYELIWRRFLASQMRDALYEQTAVTLADLEGRYAFRASGSVLRFEGYLRAWGRDAEEEEEPPVPAVPEGVPARLEEVLEERRFTEPPPRYTDASLVKTMEELGIGRPSTYAPTLETLEKRGYVARKGRTLFPTPLGRQVTAYLRERFPQVVAYEFTARMEERLDEVEEGRVPWPKVVWEFYEPFLGELAQVPKKTCPRCGRPLELKVSRYGQFLGCTGYPECTYTEPLERREAEPIGEACPKCGRPLLRKEGRYGTFIACSGYPECDYTRDDGTPTGHTCPKCGGRVLEKRSRKGRPYYKCENNACDFLSFYPLLEEACPACGWPLVKKGEKALCLNPACPEHEPSLLPAPKEAKKGRSRGKGKPPLAPPKDWEELVPFLPGLSPEERRAVEALARGEALARGEALAEEEARLARRALFKLRMRKGKARKEPVRA | soluble
3 | MGSDKIHHHHHHMTDKLSPRGRPLYLGSRGRHTRFSRIADSVADSFNLSKELTTATLLAAVNSALRGKASITINQDWDEPVNAFFLVCAESGGGKSPSNNFFKQPQLNFQTEWNEQNKNLYLRASVDKKYFAQKLKKHTQQAAELDYGNPKALEQYHAETTRLTEAYEKALRCQPLELFVDDVTNKSLIEAMSRQDGRIAIMEPEVSAFRHIVRAKEVSPILDTILKSFSGERIQLNRAGEPALTIERPILALNIMVQPPIMMQLAKNKAIQGRGILGRFFVTIVEKPRYSRFRHDPIEVPPEVRFEYQDTIYKILTTVEKSKDLLSFSLSDEATEAWLAVKDDVESSIPHNPPPGYGEWKAKAGKHLLHLACLVHIFEHQASNTIIDKRSFELAELLFNFFDKNMWSMLRFMYPEIDFLVAVKALSSGKLYNMGEFSARDMQRALGTYNSTQIAQGIDWLLDNRAIDPIEHRHIENSAKTTMHVGRKKSPTYKIIDAEWHYLRDELL | not soluble
4 | MSIAVTTTDPTNTGVSTTSSSSLTGSNAADLQSSFLTLLVAQLKNQDPTNPMENNELTSQLAQISTVSGIEKLNTTLGSISGQIDNSQSLQASNLIGHGVMIPGTTVLAGTGSEEGAVTTTTPFGVELQQAADKVTATITDKNGAVVRTIDIGELTAGVHSFTWDGTLTDGSTATNGSYNVAISASNGGTQLVAQPLQFALVQGVIRGNNGNTLDLGTYGTTILDEVRQII | soluble
5 | MKCSNEKVVNQEQSYESMDKFLDGVQEVAYIHSNQNVIGSSKAENHMSRWAAHDVFELKQFSQLPANIAVCSSKTYKEKVDADTLPHTKKGQQPSEGSISLPLYISNPVNQKKKKVYHTNQTTFIIGETPKGIRRKQFEEMASYFNSSSVNEFAKHITNATSEERQKMLRDFYASQYPEVKEFFVDSVSQFNNSSFEKGEQRTRKKSDKRESLIKPRLSDSETLSFKDSTNKISQVCSLKTYKRKSVKFQNHISYREEVFFNDAETKKSPVSSTQEIDSGKNSQASEDTVTSRSLNSESETRERRLENTMKDQQDLTRTGISRKEPLLKLENKKIENPVLENTSVISLLGDTSILDDLFKSHGNSPTQLPKKVLSGPMEKAKQRPKDFWDILNEQNDESLSKLTDLAVIETLCEKAPLAAPFKRREEPATSLWKSNEKFLWKKFSPSDTDENATNTQSTT | not soluble
6 | MSNIVYLTVTGEQQGSISAGCGTSESTGNRWQSGHEDEIFTFSLLNNINNTGLGSQFHGITFCKLIDKSTPLFINSINNNEQLFMGFDFYRINRFGRLEKYYYIQLRGAFLSAIHHQIIENQLDTETITISYEFILCQHLIANTEFSYLALPENYNRLFLPNSKNQTNNRFKTLNSKAIGRLLAAGGVYNGNIEGFRDTAEKLGGDAIKGYDQILNEKTAGIAIATASILLTKRSNVDTYTEINSYLGKLRGQQKLLDGIDIIEIIYIKRPSKDLANLRKEFNKTVRKNFLIKLAKTSEASGRFNAEDLLRMRKGNVPLNYNVHHKLSLDDGGTNDFENLVLIENEPYHKVFTNMQSRIAKGILVGESKITPWAIPSGSIYPPMKNIMDHTK | not soluble
7 | MMSKIFDLVVIGAGSGGLEAAWNAATLYKKRVAVIDVQMVHGPPFFSALGGTCVNVGCVPKKLMVTGAQYMEHLRESAGFGWEFDRTTLRAEWKNLIAVKDEAVLNINKSYDEMFRDTEGLEFFLGWGSLESKNVVNVRESADPASAVKERLETEHILLASGSWPHMPNIPGIEHCISSNEAFYLPEPPRRVLTVGGGFISVEFAGIFNAYKPKDGQVTLCYRGEMILRGFDHTLREELTKQLTANGIQILTKENPAKVELNADGSKSVTFESGKKMDFDLVMMAIGRSPRTKDLQLQNAGVMIKNGGVQVDEYSRTNVSNIYAIGDVTNRVMLTPVAINEAAALVDTVFGTTPRKTDHTRVASAVFSIPPIGTCGLIEEVASKRYEVVAVYLSSFTPLMHKVSGSKYKTFVAKIITNHSDGTVLGVHLLGDNAPEIIQGIGICLKLNAKISDFYNTIGVHPTSAEELCSMRTPSYYYVKGEKMEKPSEASL | soluble
8 | MITSDSHMHTRFSTDSDADIRDMIESALKKGLQSICITDHIDKDYPFHEDTGAEAFLVDLDEYFPKLAEWKEAYAEKIQIRRGIELGLQPHLAGFYEELTNQYPFDFVIGSVHVVHGMDPYYGEIFEGRSDEEVYKETFLATLENLDAVSSFDVLGHLDYVVRYGKCQARQYSYKKYAQEIDEILKKVIAMGKGIELNTAGWKYGLAFCHPHPEILCRYKELGGEIITVGSDAHKPEHVAYDFQKAADVLKACGFKYYTEFQDRKPIFKQLL | soluble
9 | LNDAWFNSSVVRAMLTHTRVFGRYEGPEEKLFRTANYTEINCIDNYAPTEMIEVKVTDRSGAVVEGADIRFCIYNYSEFYPVVTKQSDAQGLASLRVGKGDMLIWAAKDGLFGYALSKADDRKPLAIALDNFEAQPEWADFKIVPPAGDPIPTTCSPQQISTNDARLLREDSIRAAYEATFATAEQSAALAAELGVDAPALTGILQTSRGNHADIEGFLRSVEAGKARQRAMDLLQTVSPKDLTDTPESLLKVIFRDMAEPAPEAASGEAYRHHLRYVASPRIYTEMLSSFVPTLRSILTAKEQEAMRQDPAELVRWVSSNIRLDTLYNTQYTTITPVGVWRAKRADLRSMGIFFVAMARTLGIPARYDEVTGKIQYSKELMPLRWSDVNLRESKTALKEQGSLALDYSPTALAPNPNYYSRFTVAELQPSGIIRTLYYDENEPTDLKTLFDRPKEMNAGHYFLVTGTRMASGSVLCRMRKFTVEAGKTARQPLELLHDSTDIQVIGSINAEQLYHDLSHAEDRSLLSTTGRGYFAMAILGAGQEPTNHALKDLEKVKADFEQWGRKLILLFPDADGHKRYKPADFPSLPETAVFGLDIQGRNAAMIREAANLPDATNLPIVIIADSFGRVVFVRQGYTIGLGEQMMQVIHRL | not soluble
10 | MIKKIYFGNDHAAYEIKDQIITHLKQKGYQIIDEGAQAALGSVDYSTYALKVANDVVNDTKNDSIGILLCGTGIGMNIAASKVHGTRVALVYNESSAKLAKEHNNANIITIGARENSLNQILKMIDDFLTSKFLGERHQKRLDIIAKYEKEQNS | soluble
